Results: publication PMC7195491
Several values for one entry are separate records, joined by “and”; a condition that tells them apart may be missing. Equal entries are not always repeated. Where two headings read alike, the source gives them in different places. One block for each substance: values may come before it.

Columns and labels:
[1] = target: DIP-α K10Q {K81Q}, extracellular region (Drosophila melanogaster) (UniProt Q9W4R3); test: AUC; sedimentation equilibrium, 25 °C, 10 mM Bis-Tris pH 6.6, 150 mM NaCl, detection at 280 nm; global fit (HeteroAnalysis); dimer to monomers; mean of two independent measurements
[2] = target: DIP-α (Drosophila melanogaster); test: SPR; Biacore T100, CM4 chip; DIPs and DIP mutants immobilised by amine coupling (760-980 RU), Dprs and Dpr mutants as analytes (three-fold dilution series, up to 81 μM, in some cases up to 27 or 9 μM); 25 °C; 10 mM Tris-HCl pH 7.2, 150 mM NaCl, 1 mM EDTA, 1 mg/mL BSA, 0.01% Tween-20; equilibrium fit, 1:1 model; for KDs > 300 μM a lower limit is listed
[3] = target: DIP-α K10Q, extracellular region (Drosophila melanogaster); test: AUC; sedimentation equilibrium, 25 °C, 10 mM Bis-Tris pH 6.6, 150 mM NaCl, UV 280 nm, global fit (HeteroAnalysis); dimer to monomers; two runs (n 1, 2) and their average
[4] = target: DIP-γ (Drosophila melanogaster); test: SPR; Biacore T100, CM4 chip; DIPs and DIP mutants immobilised by amine coupling (760-980 RU), Dprs and Dpr mutants as analytes (three-fold dilution series, up to 81 μM, in some cases up to 27 or 9 μM); 25 °C; 10 mM Tris-HCl pH 7.2, 150 mM NaCl, 1 mM EDTA, 1 mg/mL BSA, 0.01% Tween-20; equilibrium fit, 1:1 model; for KDs > 300 μM a lower limit is listed
[5] = target: DIP-α K10Q S32D {K81Q S133D}, extracellular region (Drosophila melanogaster) (UniProt Q9W4R3); test: SPR; Biacore T100, CM4 chip; DIPs and DIP mutants immobilised by amine coupling, Dprs as analytes; 25 °C; 10 mM Tris-HCl pH 7.2, 150 mM NaCl, 1 mM EDTA, 1 mg/mL BSA, 0.01% Tween-20; duplicate responses fit globally to a 1:1 model; Rmax fixed for KDs > 100 μM, lower limit listed for KDs > 300 μM
[6] = target: DIP-α K10Q {K81Q}, extracellular region (Drosophila melanogaster) (UniProt Q9W4R3); test: as above
[7] = target: DIP-α I16A {I91A}, extracellular region (Drosophila melanogaster) (UniProt Q9W4R3); test: as above
[8] = target: DIP-α G4L {G74L}, extracellular region (Drosophila melanogaster) (UniProt Q9W4R3); test: as above
[9] = target: DIP-α G4A {G74A}, extracellular region (Drosophila melanogaster) (UniProt Q9W4R3); test: as above
[10] = target: DIP-α N19D {N94D}, extracellular region (Drosophila melanogaster) (UniProt Q9W4R3); test: as above
[11] = target: DIP-α A7K {A78K}, extracellular region (Drosophila melanogaster) (UniProt Q9W4R3); test: as above
[12] = target: DIP-α A11T {A82T}, extracellular region (Drosophila melanogaster) (UniProt Q9W4R3); test: as above
[13] = target: DIP-α K10Q G4S {K81Q G74S}, extracellular region (Drosophila melanogaster) (UniProt Q9W4R3); test: as above
[14] = target: DIP-β (isoformG), extracellular region (Drosophila melanogaster); test: as above
[15] = target: DIP-α (Dpr Interacting Protein alpha), extracellular region (Drosophila melanogaster) (UniProt Q9W4R3); test: as above
[16] = target: DIP-α K10Q G4S, extracellular region (Drosophila melanogaster); test: AUC; sedimentation equilibrium, 25 °C, 10 mM Bis-Tris pH 6.6, 150 mM NaCl, UV 280 nm, global fit (HeteroAnalysis); dimer to monomers; two runs (n 1, 2) and their average
[17] = target: DIP-α K10Q S32D {K81Q S133D}, extracellular region (Drosophila melanogaster) (UniProt Q9W4R3); test: AUC; sedimentation equilibrium, 25 °C, 10 mM Bis-Tris pH 6.6, 150 mM NaCl, detection at 280 nm; global fit (HeteroAnalysis); dimer to monomers; mean of two independent measurements
[18] = target: DIP-γ (Dpr Interacting Protein gamma), extracellular region (Drosophila melanogaster) (UniProt Q9VAR6); test: SPR; Biacore T100, CM4 chip; DIPs and DIP mutants immobilised by amine coupling, Dprs as analytes; 25 °C; 10 mM Tris-HCl pH 7.2, 150 mM NaCl, 1 mM EDTA, 1 mg/mL BSA, 0.01% Tween-20; duplicate responses fit globally to a 1:1 model; Rmax fixed for KDs > 100 μM, lower limit listed for KDs > 300 μM
[19] = target: DIP-α K10Q G4S {K81Q G74S}, extracellular region (Drosophila melanogaster) (UniProt Q9W4R3); test: AUC; sedimentation equilibrium, 25 °C, 10 mM Bis-Tris pH 6.6, 150 mM NaCl, detection at 280 nm; global fit (HeteroAnalysis); dimer to monomers; mean of two independent measurements
[20] = target: DIP-α K10Q S32D, extracellular region (Drosophila melanogaster); test: AUC; sedimentation equilibrium, 25 °C, 10 mM Bis-Tris pH 6.6, 150 mM NaCl, UV 280 nm, global fit (HeteroAnalysis); dimer to monomers; two runs (n 1, 2) and their average
[21] = target: DIP-α (Dpr Interacting Protein alpha), extracellular region (Drosophila melanogaster) (UniProt Q9W4R3); test: SPR; Biacore T100, CM4 chip; DIPs and DIP mutants immobilised by amine coupling, Dprs as analytes; 25 °C; 10 mM Tris-HCl pH 7.2, 150 mM NaCl, 1 mM EDTA, 1 mg/mL BSA, 0.01% Tween-20; duplicate responses fit globally to a 1:1 model; Rmax fixed for KDs > 100 μM, lower limit listed for KDs > 300 μM; remark: listed apart in the source

Chain of DIP-γ (Dpr Interacting Protein gamma), extracellular region (Drosophila melanogaster) (Q9VAR6 entry or part of it): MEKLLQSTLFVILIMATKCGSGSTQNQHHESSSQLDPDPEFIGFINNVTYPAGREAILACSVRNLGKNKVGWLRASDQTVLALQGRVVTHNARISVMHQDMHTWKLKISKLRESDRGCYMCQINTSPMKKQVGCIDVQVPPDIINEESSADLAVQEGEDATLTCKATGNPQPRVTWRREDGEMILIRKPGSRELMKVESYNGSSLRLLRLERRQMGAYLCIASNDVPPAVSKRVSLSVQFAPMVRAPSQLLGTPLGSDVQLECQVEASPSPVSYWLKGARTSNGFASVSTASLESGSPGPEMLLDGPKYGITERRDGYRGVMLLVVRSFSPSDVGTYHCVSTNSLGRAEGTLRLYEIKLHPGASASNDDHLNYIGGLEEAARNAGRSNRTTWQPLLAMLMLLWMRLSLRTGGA

Kd [2]: 2 µM
Substance: Dpr6 (domain or fragment)

Kd [3]: 17.8 µM and 21.6 µM | Kd ([3]; mean): 19.7 µM
Substance: DIP-α K10Q, extracellular region (domain or fragment)

Kd [16]: 52 µM and 40.6 µM | Kd ([16]; mean): 46.3 µM
Substance: DIP-α K10Q G4S, extracellular region (domain or fragment)

Kd [17]: 64.4 µM | stoichiometry N [17]: 2
Substance: DIP-α K10Q S32D {K81Q S133D}, extracellular region (from UniProt Q9W4R3 1-554) (domain or fragment)

Kd [4]: 131 µM
Substance: Dpr11 K31V,E29Q (domain or fragment)

fold increase of KD over the V31K single mutant [2]: 2 fold
Substance: Dpr10 V31K Q29E (domain or fragment)

Kd [19]: 46.3 µM | stoichiometry N [19]: 2
Substance: DIP-α K10Q G4S {K81Q G74S}, extracellular region (from UniProt Q9W4R3 1-554) (domain or fragment)

Kd [20]: 60.6 µM and 68.3 µM | Kd ([20]; mean): 64.5 µM
Substance: DIP-α K10Q S32D, extracellular region (domain or fragment)

Kd [14]: > 300 µM | Kd [15]: > 300 µM
Substance: Dpr11 K31V {K207V}, extracellular region (from UniProt Q8MRE6 1-360) (domain or fragment)

Kd [21]: 19.3 µM
Substance: Dpr10 Q26D {Q138D}, extracellular region (from UniProt M9PF17 1-362) (domain or fragment)

Second part, the substance before the results:

Substance: DIP-α K10Q {K81Q}, extracellular region (from UniProt Q9W4R3 1-554) (domain or fragment)
Kd [1]: 19.7 µM | stoichiometry N [1]: 2

Substance: Dpr11 K31V (domain or fragment)
Kd [4]: 22.7 µM

Substance: Dpr6 (Defective proboscis extension response 6), extracellular region (from UniProt M9PC40 1-390) (domain or fragment)
Kd [5]: 26.2 µM | Kd [6]: 18.4 µM | Kd [7]: 80.1 µM | Kd [8]: 23.5 µM | Kd [9]: 1.1 µM | Kd [10]: 1.05 µM | Kd [11]: 0.46 µM | Kd [12]: 10.1 µM | Kd [13]: 101 µM

Substance: Dpr11 K31V E29Q {K207V E205Q}, extracellular region (from UniProt Q8MRE6 1-360) (domain or fragment)
Kd [14]: > 300 µM | Kd [15]: > 300 µM

Substance: Dpr10 V31K {V144K}, extracellular region (from UniProt M9PF17 1-362) (domain or fragment)
Kd [14]: 52.3 µM

Substance: Dpr11 K31V E29Q G10L {K207V E205Q G157L}, extracellular region (from UniProt Q8MRE6 1-360) (domain or fragment)
Kd [18]: 17.6 µM | Kd [14]: 27.8 µM

Substance: Dpr10 V31K (domain or fragment)
fold increase of KD over wild-type Dpr10 [2]: 10 fold

Substance: Dpr10 V31K Q29E {V144K Q142E}, extracellular region (from UniProt M9PF17 1-362) (domain or fragment)
Kd [14]: 71.6 µM
